Measurements taken from US20210403594A1 (IMMUNOGEN, published 2021).

Assays:
[1] = molecular target: T1, human EpCAM (CD326) (human, UniProt P16422 24-314); experiment: flow cytometry on HSC2 cells; Geo Mean FL1 against concentration; Alexa Fluor Plus 488 goat anti-mouse IgG (Example 2)
T1 construct: whole, on cells; Antigen on the surface of the human cells used in flow cytometry and cytotoxicity assays; also called EpCAM on HSC2 cells; human-EpCAM expressing 300-19 cells
T1 sequence (looked up): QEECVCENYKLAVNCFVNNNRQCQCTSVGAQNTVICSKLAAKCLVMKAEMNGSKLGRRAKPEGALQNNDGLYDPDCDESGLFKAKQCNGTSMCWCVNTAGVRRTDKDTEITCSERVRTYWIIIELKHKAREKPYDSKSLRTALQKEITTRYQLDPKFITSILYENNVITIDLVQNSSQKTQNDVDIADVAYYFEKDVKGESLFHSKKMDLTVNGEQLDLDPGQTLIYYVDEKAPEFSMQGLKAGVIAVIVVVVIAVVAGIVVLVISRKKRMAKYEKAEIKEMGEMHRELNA

[2] = molecular target: cynomolgus EpCAM (cynomolgus monkey); experiment: flow cytometry on cyno kidney epithelial cells; Geo Mean FL1 against concentration; Alexa Fluor Plus 488 goat anti-mouse IgG (Example 2)
cynomolgus EpCAM (cynomolgus monkey), sequence (Q1WER1 24-314): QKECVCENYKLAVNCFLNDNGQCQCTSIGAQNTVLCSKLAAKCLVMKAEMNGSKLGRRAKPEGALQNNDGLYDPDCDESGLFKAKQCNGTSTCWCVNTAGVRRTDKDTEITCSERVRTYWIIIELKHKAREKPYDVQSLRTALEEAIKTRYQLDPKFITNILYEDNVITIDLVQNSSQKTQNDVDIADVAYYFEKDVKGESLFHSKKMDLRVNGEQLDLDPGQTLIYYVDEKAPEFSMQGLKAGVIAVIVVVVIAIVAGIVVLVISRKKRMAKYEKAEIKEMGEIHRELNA

B1: mEpCAM23 (antibody, mouse IgG2b, kappa)
heavy: EVKLEESGPALVKPGASVRISCKASGYTFTNYYIHWVKQRPGQGLDYIGWIYPGNVYIQYNEKFKGKATLTADKSSSTAFMQLSSLTSEDSAVYFCARDGPWFAYWGQGTLVTVSSAKTTPPSVYPLAPGCGDTTGSSVTLGCLVKGYFPESVTVTWNSGSLSSSVHTFPALLQSGLYTMSSSVTVPSSTWPSQTVTCSVAHPASSTTVDKKLEPSGPISTINPCPPCKECHKCPAPNLEGGPSVFIFPPNIKDVLMISLTPKVTCVVVDVSEDDPDVRISWFVNNVEVHTAQTQTHREDYNSTIRVVSALPIQHQDWMSGKEFKCKVNNKDLPSPIERTISKIKGLVRAPQVYILPPPAEQLSRKDVSLTCLVVGFNPGDISVEWTSNGHTEENYKDTAPVLDSDGSYFIYSKLDIKTSKWEKTDSFSCNVRHEGLKNYYLKKTISRSPGK
light: DIVLTQTPFSNPVTLGTSASISCRSSKSLLHSDGFTYLYWFLQKPGQSPHLLIYQTSNLASGVPDRFSSSGSGTDFTLRISRVEAEDVGVYYCAQNLELPNTFGGGTKLEIKRADAAPTVSIFPPSSEQLTSGGASVVCFLNNFYPKDINVKWKIDGSERQNGVLNSWTDQDSKDSTYSMSSTLTLTKDEYERHNSYTCEATHKTSTSPIVKSFNRNEC
notes: also called muEpCAM-23; muEpCAM23
Kd [1]: 0.38 nM
Kd [2]: 0.79 nM
